How the values were obtained:
Experiment in all cases: BLI
Details in all cases: both partners purified
[1] = molecular target: DENV2 NGC strain recombinant E protein ectodomain (residues 1-394) (dengue virus serotype 2, strain NGC)
[2] = molecular target: T1, DENV1 WestPac74 strain recombinant E protein ectodomain (residues 1-394) (dengue virus serotype 1, strain WestPac …)
T1 construct: also called DENV1 WestPac 74 rE protein; Western Pacific 1974

[3] = molecular target: T2, DENV2 PVP94/07 strain recombinant E protein ectodomain (residues 1-394) (dengue virus serotype 2, strain PVP94/07)
T2 construct: also called DENV2 PVP94/07 rE protein

B1: human monoclonal antibody (HMAb) 1C19, IgG (antibody, V domains shown)
VH: QVQLVESGGGVVQPGRSLRLSCAASGFIFSNYGMHWVRQAPGKGLEWVAVISYDGSDKRYADSVRGRFTISRDNSKNTLFLQVTSLRAEDTAVYYCAKELSGYDPGFEYWGQGTPVTVSS
VL: DIQMTQSPSTLSASVGDRVTITCRASQSINTWLAWYQQKPGKAPKLLIYKASSLESGVPSRFSGSGSGTEFTLTISSLQPDDFATYYCQQYESYATFGQGTKVDIK
notes: also called IgG 1C19
Kd [1]: 4.55 nM | Kd [2]: 0.844 nM | Kd [3]: 19 nM
